Assay [1] concerns paratarg-specific paraprotein (patients' sera). Nature of the assay: Paraprotein binding to recombinant paratarg, stomatin family members and paratarg peptides/fragments (dot blot, ELISA, peptide spot analysis). More on the design: species or system human. Conditions: for recognition by paratarg-specific paraproteins / patients' serum: ELISA, Western blotting or peptide spot analysis. Here is the method:
100 ng of each recombinant protein were separated by SDS-PAGE and transferred to PVDF membrane (Millipore Immobilon) by semidry blotting. The membrane was blocked in TST/milk buffer (10% milk in 10 mM Tris/HCl, pH 7.5, 150 mM NaCl, 0.1% (v/v) Tween 20) overnight, washed and incubated for 1 h with serum in TST (paraprotein patients serum at a dilution of 1:10^8 and control patients serum at a dilution of 1:10^3). After three washings in TST, the membranes were incubated for 1 h at RT with goat anti-human IgG AP-coupled antibody (Dianova) diluted 1:5,000 in TST, subsequently washed in TST followed by AP-development.
His6-tagged fusion proteins were spotted on nitrocellulose membranes. After spotting, the protein arrays were blocked, incubated and detected as described above.
The epitopes recognized by the patients' paraproteins were identified as described before (Preuss et al, 2006). In brief: matrix-bound synthesized decamer peptides with 5 amino acids overlaps between every 2nd consecutive decamer covering the entire paratarg sequence were used to screen patients sera. Paratarg-specific paraproteins binding to the corresponding paratarg epitopes were visualized by ECL technique according to the suppliers' instructions (PIERCE, Rockford, USA). Finally, matrix stripes were photographed for documentation.
Full-length paratarg was recombinantly expressed in HEK293 cells under control of CMV promoter introducing a FLAG tag at the C-terminus of the protein. Total cell extract was prepared and coated indirectly to Nunc maxisorb plates using anti-FLAG mAb (Sigma). Elisa was performed according standard protocols. Partially truncated paratarg fragments were processed accordingly.
Paratarg fragments were obtained by PCR amplification using suitable primers and verified by sequencing. These fragments were subcloned into the vector and expressed as described before.
On the technique in general: ELISA stands for enzyme-linked immunosorbent assay.

Assay [2] concerns paraproteins of serum pool #1 (MGUS/MM patients' sera). Nature of the assay: Serum profiling on high density protein arrays (paraprotein screening of hEx1 human fetal brain macroarray). In kind it is binding. Also on record: key: Paraprotein-binding quality/strength are ++, + and ±.; Paraprotein-binding quality/strength are ++, + and ±.; Paraprotein-binding quality/strength are ++, + and ±. As to conditions: serum pool #1 (n=114), each serum diluted 1:10^8. As for the experimental part:
Screening analyses were performed on hEx1 high-density protein expression cDNA libraries, created in Hans Lehrach's laboratory at the Max Planck Institute for Molecular Genetics in Berlin (Germany) and obtained from the Reference Center of the German Human Genome Project (RZPD) (Bussow et al, 1998). These high-density filter membranes display proteins that were expressed from a modified pQE protein expression vector (Qiagen). This vector featured a hexahistidine tag, a T5 promoter and two lac operator sequences, which allowed repression during the growth phase by overexpression of the Lac repressor protein, and subsequent induction of protein expression with isopropyl-beta-D-thiogalactopyranoside (IPTG).
High density protein arrays of the protein expression set of the hEx1 library were obtained from the German Resource Center for Genome Research (RZPD) and provided by Dr. Mahlknecht from our department. They consist of 37,200 independent clones derived from a human fetal brain cDNA expression library and were used for autoantibody detection. For serum profiling, the filters were blocked in 10% (w/v) non-fat, dry milk powder in TBST (TBS, 0.1% (v/v) Tween 20) at 4° C. overnight, washed twice in TBST, and incubated for 1 h with serum pool #1 at a dilution of 1:10^8 for each serum. Following three 30-min TBST washes and subsequent incubation with the secondary antibody (goat anti-human IgG biotinylated, Dianova, diluted 1:2.500) and Strep-PDX (1:15.000) in 2% (w/v) Milk/TBST, the filters were washed three times for 30 min in TBST. This was followed by detection using Pharmacia ECL system. Positive signals were localized according to the manufacturer's protocol. Corresponding clones were obtained from RZPD.
In this study we screened a human high-density protein array containing 37,200 independent recombinant proteins derived from a human fetal brain expression library with sera obtained from patients with monoclonal gammopathy of undetermined significance (MGUS) and multiple myeloma (MM).
The signal pattern obtained from the screening with the paraprotein pools at a dilution of 1:10^8 were compared with the patterns obtained from screening with the control sera from clinically healthy donors and to background incubations. […] 5′- and 3′-tag sequencing of these clones was performed, and their sequences were used for BLAST searches against public databases at NCBI.
Using serum pool #1 (paraprotein type: 15 IgA, 88 IgG, 11 oligoclonal, n=114) we identified 14 putative paraprotein targets on the human protein filter array (FIG. 1, Tab. 1). […] Sequence searches and comparisons using the in-frame sequences identified five known proteins and one unknown gene product derived from chromosome 8.

“SLLASGRAPRRASSG [15 amino acid region near the N-terminal end of paratarg]”: the “recognition by paratarg-specific paraproteins / patients' serum” value in assay [1] is “recognized by patients' serum”.

Turning to “stomatin: recombinantly expressed human stomatin family member”, the “recognition by paratarg-specific paraproteins / patients' serum” value in assay [1] is listed as “no signal”.

On to SLLASGRAP [paratarg amino acid region], for which the “recognition by paratarg-specific paraproteins / patients' serum” value in assay [1] is listed as “recognized”.

B1: paratarg: stomatin-like protein 2 (SLP-2), SEQ ID NO: 1, antigenic paraprotein target (protein, listed as Homo sapiens)
chain: MLARAARGTGALLLRGSLLASGRAPRRASSGLPRNTVVLFVPQQEAWVVERMGRFHRILEPGLNILIPVLDRIRYVQSLKEIVINVPEQSAVTLDNVTLQIDGVLYLRIMDPYKASYGVEDPEYAVTQLAQTTMRSELGKLSLDKVFRERESLNASIVDAINQAADCWGIRCLRYEIKDIHVPPRVKESMQMQVEAERRKRATVLESEGTRESAINVAEGKKQAQILASEAEKAEQINQAAGEASAVLAKAKAKAEAIRILAAALTQHNGDAAASLTVAEQYVSAFSKLAKDSNTILLPSNPGDVTSMVAQAMGVYGALTKAPVPGTPDSLSSGSSRDVQGTDASLDEELDRVKMS
Consider B1, for which the “serum dilution at which recognition was detectable” value in assay [1] (individual patient sera) is recorded as 10^10. Also, the “titer of paraprotein-containing sera reacting with the antigen” value in assay [1] (sera of more than two patients) is given as > 10^8.

B2: MPMGp800E08596: RZPD clone coding for paratarg (protein)
chain: B1 chain
modifications: left off: small tags and cut ends
notes: RZPD clone coding for paratarg
With B2, in assay [2], the “Signal-quality (paraprotein-binding quality/strength)” value is given as “++”.

B3: MPMGp800E08580: RZPD clone, NM_004819.1 (protein, UniProt Q92797 1-1274, looked up)
Symplekin: MASGSGDSVTRRSVASQFFTQEEGPGIDGMTTSERVVDLLNQAALITNDSKITVLKQVQELIINKDPTLLDNFLDEIIAFQADKSIEVRKFVIGFIEEACKRDIELLLKLIANLNMLLRDENVNVVKKAILTMTQLYKVALQWMVKSRVISELQEACWDMVSAMAGDIILLLDSDNDGIRTHAIKFVEGLIVTLSPRMADSEIPRRQEHDISLDRIPRDHPYIQYNVLWEEGKAALEQLLKFMVHPAISSINLTTALGSLANIARQRPMFMSEVIQAYETLHANLPPTLAKSQVSSVRKNLKLHLLSVLKHPASLEFQAQITTLLVDLGTPQAEIARNMPSSKDTRKRPRDDSDSTLKKMKLEPNLGEDDEDKDLEPGPSGTSKASAQISGQSDTDITAEFLQPLLTPDNVANLVLISMVYLPEAMPASFQAIYTPVESAGTEAQIKHLARLMATQMTAAGLGPGVEQTKQCKEEPKEEKVVKTESVLIKRRLSAQGQAISVVGSLSSMSPLEEEAPQAKRRPEPIIPVTQPRLAGAGGRKKIFRLSDVLKPLTDAQVEAMKLGAVKRILRAEKAVACSGAAQVRIKILASLVTQFNSGLKAEVLSFILEDVRARLDLAFAWLYQEYNAYLAAGASGSLDKYEDCLIRLLSGLQEKPDQKDGIFTKVVLEAPLITESALEVVRKYCEDESRTYLGMSTLRDLIFKRPSRQFQYLHVLLDLSSHEKDKVRSQALLFIKRMYEKEQLREYVEKFALNYLQLLVHPNPPSVLFGADKDTEVAAPWTEETVKQCLYLYLALLPQNHKLIHELAAVYTEAIADIKRTVLRVIEQPIRGMGMNSPELLLLVENCPKGAETLVTRCLHSLTDKVPPSPELVKRVRDLYHKRLPDVRFLIPVLNGLEKKEVIQALPKLIKLNPIVVKEVFNRLLGTQHGEGNSALSPLNPGELLIALHNIDSVKCDMKSIIKATNLCFAERNVYTSEVLAVVMQQLMEQSPLPMLLMRTVIQSLTMYPRLGGFVMNILSRLIMKQVWKYPKVWEGFIKCCQRTKPQSFQVILQLPPQQLGAVFDKCPELREPLLAHVRSFTPHQQAHIPNSIMTILEASGKQEPEAKEAPAGPLEEDDLEPLTLAPAPAPRPPQDLIGLRLAQEKALKRQLEEEQKLKPGGVGAPSSSSPSPSPSARPGPPPSEEAMDFREEGPECETPGIFISMDDDSGLTEAALLDSSLEGPLPKETAAGGLTLKEERSPQTLAPVGEDAMKTPSPAAEDAREPEAKGNS
For B3, the “Signal-quality (paraprotein-binding quality/strength)” value in assay [2] was “+”.

B4: SLP-1: recombinantly expressed human stomatin family member (protein)
chain: MLGRSGYRALPLGDFDRFQQSSFGFLGSQKGCLSPERGGVGTGADVPQSWPSCLCHGLISFLGFLLLLVTFPISGWFALKIVPTYERMIVFRLGRIRTPQGPGMVLLLPFIDSFQRVDLRTRAFNVPPCKLASKDGAVLSVGADVQFRIWDPVLSVMTVKDLNTATRMTAQNAMTKALLKRPLREIQMEKLKISDQLLLEINDVTRAWGLEVDRVELAVEAVLQPPQDSPAGPNLDSTLQQLALHFLGGSMNSMAGGAPSPGPADTVEMVSEVEPPAPQVGARSSPKQPLAEGLLTALQPFLSEALVSQVGACYQFNVVLPSGTQSAYFLDLTTGRGRVGHGVPDGIPDVVVEMAEADLRALLCRELRPLGAYMSGRLKVKGDLAMAMKLEAVLRALK
For the molecule B4, the “recognition by paratarg-specific paraproteins / patients' serum” value in assay [1] is reported as “no signal”.

B5: MPMGp800P21581: RZPD clone, NM_001622.1 (protein, UniProt P02765 19-300; P02765 341-367, looked up)
Alpha-2-HS-glycoprotein chain … 1: APHGPGLIYRQPNCDDPETEEAALVAIDYINQNLPWGYKHTLNQIDEVKVWPQQPSGELFEIEIDTLETTCHVLDPTPVARCSVRQLKEHAVEGDCDFQLLKLDGKFSVVYAKCDSSPDSAEDVRKVCQDCPLLAPLNDTRVVHAAKAALAAFNAQNNGSNFQLEEISRAQLVPLPPSTYVEFTVSGTDCVAKEATEAAKCNLLAEKQYGFCKATLSEKLGGAEVAVTCMVFQTQPVSSQPQPEGANEAVPTPVVDPDAPPSPPLGAPGLPPAGSPPDSHVL
Alpha-2-HS-glycoprotein chain … 2: TVVQPSVGAAAGPVVPPCPGRIRHFKV
Regarding B5, the “Signal-quality (paraprotein-binding quality/strength)” value in assay [2] was “+”.

B6: MPMGp800P18577: RZPD clone, NM_004323.3 (protein, UniProt Q99933 1-345, looked up)
BAG family molecular …: MAQRGGARRPRGDRERLGSRLRALRPGREPRQSEPPAQRGPPPSGRPPARSTASGHDRPTRGAAAGARRPRMKKKTRRRSTRSEELTRSEELTLSEEATWSEEATQSEEATQGEEMNRSQEVTRDEESTRSEEVTREEMAAAGLTVTVTHSNEKHDLHVTSQQGSSEPVVQDLAQVVEEVIGVPQSFQKLIFKGKSLKEMETPLSALGIQDGCRVMLIGKKNSPQEEVELKKLKHLEKSVEKIADQLEELNKELTGIQQGFLPKDLQAEALCKLDRRVKATIEQFMKILEEIDTLILPENFKDSRLKRKGLVKKVQAFLAECDTVEQNICQETERLQSTNFALAE
On to B6, for which the “Signal-quality (paraprotein-binding quality/strength)” value in assay [2] is “+”.
